Target: mLRPIV-HA, stably expressed in SH-SY5Y
Test: co-IP + ELISA; SH-SY5Y cells stably expressing mLRPIV-HA incubated with Aβ42 and 1 to 200 nM DKK1 or DKK3; mLRPIV-HA precipitated with anti-HA affinity gel; Aβ42 in the eluate by ELISA

B1: DKK1-Flag (ligand)
chain: TLNSVLNSNAIKNLPPPLGGAAGHPGSAVSAAPGILYPGGNKYQTIDNYQPYPCAEDEECGTDEYCASPTRGGDAGVQICLACRKRRKRCMRHAMCCPGNYCKNGICVSSDQNHFRGEIEETITESFGNDHSTLDGYSRRTTLSSKMYHTKGQEGSVCLRSSDCASGLCCARHFWSKICKPVLKEGQVCTKHRRKGSHGLEIFQRCYCGEGLSCRIQKDHHQASNSSRLHTCQRH
**Q.** For B1, which percent reduction of Aβ42 binding to mLRPIV at 20 nM DKK1 is on record?
**A.** The percent reduction of Aβ42 binding to mLRPIV at 20 nM DKK1 was 44%.
